From article PMC7481392, “Identification of MltG as a Prc Protease Substrate Whose Dysregulation Contributes to the Conditional Growth Defect of Prc-Deficient Escherichia coli” (Frontiers in Microbiology, 2020) come the findings set out here.

Assay [1] concerns the target T1, Prc protease (wild type), C-terminally His6-tagged (E. coli, UniProt P23865 23-682, Dylight 549 NHS ester on amines).
T1 construct: Prc (Tsp), periplasmic protease of Escherichia coli, 76 kDa; encoded on pTR147 (Spiers et al., 2002); also called Tsp; Prc (WT); source: E. coli DH5α harboring pTR147, purified (Ni-NTA)
T1 sequence (looked up): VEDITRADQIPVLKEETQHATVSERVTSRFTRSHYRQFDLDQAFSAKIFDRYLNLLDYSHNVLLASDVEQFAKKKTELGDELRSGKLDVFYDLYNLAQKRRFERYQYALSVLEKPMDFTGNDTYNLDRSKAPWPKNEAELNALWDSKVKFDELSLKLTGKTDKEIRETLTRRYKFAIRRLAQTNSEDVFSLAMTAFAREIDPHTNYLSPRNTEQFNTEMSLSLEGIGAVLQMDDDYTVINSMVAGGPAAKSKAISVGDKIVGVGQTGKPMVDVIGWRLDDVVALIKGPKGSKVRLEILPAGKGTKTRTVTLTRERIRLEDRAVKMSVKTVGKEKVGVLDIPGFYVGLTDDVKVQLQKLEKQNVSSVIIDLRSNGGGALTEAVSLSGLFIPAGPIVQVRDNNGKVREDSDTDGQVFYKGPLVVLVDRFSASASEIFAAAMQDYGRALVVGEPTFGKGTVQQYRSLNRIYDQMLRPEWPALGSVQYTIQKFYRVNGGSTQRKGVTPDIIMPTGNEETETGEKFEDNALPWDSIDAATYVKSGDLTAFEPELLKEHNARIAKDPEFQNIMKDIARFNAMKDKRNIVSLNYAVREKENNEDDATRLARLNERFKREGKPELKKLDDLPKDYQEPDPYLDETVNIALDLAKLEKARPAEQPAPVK
As to the kind of experiment: peptide or protein array; E. coli K12 proteome array (N-terminally His6-tagged ASKA proteins spotted in duplicate on slides), blocked with 1% BSA in TBS, probed with 1 μM Dylight 549-labelled Prc variant in PBS pH 7.4 with 1% BSA, RT, 1 h; washed with TBS-T; triplicate. The following applies: both partners purified.

The target in assay [2] is T2, K455A-Prc, catalytically inactive Prc mutant, C-terminally His6-tagged (E. coli, UniProt P23865 23-682, K455A, Dylight 549 NHS ester on amines (array assay only)).
T2 construct: Prc (Tsp), periplasmic protease of Escherichia coli, with K455A; encoded on pTR163 (Spiers et al., 2002); The same construct was used purified and labelled on the array, and unlabelled in lysate for the co-IP; source: E. coli DH5α harboring pTR163, purified (Ni-NTA); E. coli ΔmltG-BW25113 harboring pTR163, in lysate; not shown: His6, C-terminal, kept
T2 sequence (looked up): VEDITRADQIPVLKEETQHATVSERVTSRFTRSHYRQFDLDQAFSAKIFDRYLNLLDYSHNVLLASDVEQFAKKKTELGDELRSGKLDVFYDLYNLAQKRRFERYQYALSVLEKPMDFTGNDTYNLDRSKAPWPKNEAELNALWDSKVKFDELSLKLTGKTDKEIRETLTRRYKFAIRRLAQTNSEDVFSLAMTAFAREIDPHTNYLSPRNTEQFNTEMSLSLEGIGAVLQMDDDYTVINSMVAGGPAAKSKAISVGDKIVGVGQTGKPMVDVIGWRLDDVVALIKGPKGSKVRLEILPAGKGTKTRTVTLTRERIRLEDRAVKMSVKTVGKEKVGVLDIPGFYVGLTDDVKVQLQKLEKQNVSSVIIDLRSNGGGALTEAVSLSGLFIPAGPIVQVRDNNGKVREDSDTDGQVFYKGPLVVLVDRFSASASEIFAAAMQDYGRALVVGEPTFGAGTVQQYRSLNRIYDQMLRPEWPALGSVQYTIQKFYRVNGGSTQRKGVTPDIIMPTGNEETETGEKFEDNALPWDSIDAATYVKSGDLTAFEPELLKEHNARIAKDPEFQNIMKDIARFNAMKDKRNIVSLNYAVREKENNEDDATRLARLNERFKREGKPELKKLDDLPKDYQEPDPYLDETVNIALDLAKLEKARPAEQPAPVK
The description is as above. The note with it: both partners purified.

B1: HupA, N-terminally 6xHis-tagged, from the ASKA ORF library (on the proteome array) (natural protein, E. coli K12, UniProt P0ACF0 1-90, looked up)
chain: MNKTQLIDVIAEKAELSKTQAKAALESTLAAITESLKEGDAVQLVGFGTFKVNHRAERTGRNPQTGKEIKIAAANVPAFVSGKALKDAVK
notes: ORF clone of the ASKA library; source: E. coli, ASKA library clone, purified (Ni-NTA, high-throughput)
For the molecule B1, in assay [1], the binding result is on record as “binds”.

B2: YegV, N-terminally 6xHis-tagged, from the ASKA ORF library (on the proteome array) (natural protein, E. coli K12, UniProt P76419 1-321, looked up)
chain: MSGARLHTLLPELTTRQSVMVVGAAVIDVIADAYALPWRGCDIELKQQSVNVGGCALNIAVALKRLGIEAGNALPLGQGVWAEMIRNRMAKEGLISLIDNAEGDNGWCLALVEPDGERTFMSFSGVENQWNRQWLARLTVAPGSLLYFSGYQLASPCGELLVEWLEELQDVTPFIDFGPRIGDIPDALLARIMACRPLVSLNRQEAEIAAERFALSAEITTLGKQWQEKFAAPLIVRLDKEGAWYFSNDASGCIPAFPTQVVDTIGAGDSHAGGVLAGLASGLPLADAVLLGNAVASWVVGHRGGDCAPTREELLLAHKNV
notes: YegV, putative sugar kinase, E. coli K12; ORF clone of the ASKA library; source: E. coli, ASKA library clone, purified (Ni-NTA, high-throughput)
Turning to B2, the binding result in assay [2] was “binds”.

B3: YfaU, N-terminally 6xHis-tagged, from the ASKA ORF library (on the proteome array) (natural protein, E. coli K12, UniProt P76469 1-267, looked up)
chain: MNALLSNPFKERLRKGEVQIGLWLSSTTAYMAEIAATSGYDWLLIDGEHAPNTIQDLYHQLQAVAPYASQPVIRPVEGSKPLIKQVLDIGAQTLLIPMVDTAEQARQVVSATRYPPYGERGVGASVARAARWGRIENYMAQVNDSLCLLVQVESKTALDNLDEILDVEGIDGVFIGPADLSASLGYPDNAGHPEVQRIIETSIRRIRAAGKAAGFLAVAPDMAQQCLAWGANFVAVGVDTMLYSDALDQRLAMFKSGKNGPRIKGSY
notes: YfaU (RhmA), 2-keto-3-deoxy-L-rhamnonate aldolase, E. coli K12; ORF clone of the ASKA library; also called RhmA; source: E. coli, ASKA library clone, purified (Ni-NTA, high-throughput)
For B3, the binding result in assay [1] and in assay [2] was “binds” in each case.

B4: YaaW, N-terminally 6xHis-tagged, from the ASKA ORF library (on the proteome array) (natural protein, E. coli K12, UniProt P75617 1-237, looked up)
chain: MNVNYLNDSDLDFLQHCSEEQLANFARLLTHNEKGKTRLSSVLMRNELFKSMEGHPEQHRRNWQLIAGELQHFGGDSIANKLRGHGKLYRAILLDVSKRLKLKADKEMSTFEIEQQLLEQFLRNTWKKMDEEHKQEFLHAVDARVNELEELLPLLMKDKLLAKGVSHLLSSQLTRILRTHAAMSVLGHGLLRGAGLGGPVGAALNGVKAVSGSAYRVTIPAVLQIACLRRMVSATQV
notes: YaaW, function E. coli K12; ORF clone of the ASKA library; source: E. coli, ASKA library clone, purified (Ni-NTA, high-throughput)
Consider B4, for which the binding result in assay [1] and in assay [2] was “binds” throughout.

B5: YidA, N-terminally 6xHis-tagged, from the ASKA ORF library (on the proteome array) (natural protein, E. coli K12, UniProt P0A8Y5 1-270, looked up)
chain: MAIKLIAIDMDGTLLLPDHTISPAVKNAIAAARARGVNVVLTTGRPYAGVHNYLKELHMEQPGDYCITYNGALVQKAADGSTVAQTALSYDDYRFLEKLSREVGSHFHALDRTTLYTANRDISYYTVHESFVATIPLVFCEAEKMDPNTQFLKVMMIDEPAILDQAIARIPQEVKEKYTVLKSAPYFLEILDKRVNKGTGVKSLADVLGIKPEEIMAIGDQENDIAMIEYAGVGVAMDNAIPSVKEVANFVTKSNLEDGVAFAIEKYVLN
notes: YidA, sugar phosphatase, E. coli K12; ORF clone of the ASKA library; source: E. coli, ASKA library clone, purified (Ni-NTA, high-throughput)
B5: the binding result in assay [1] and in assay [2] was “binds” each time.

B6: TyrA, N-terminally 6xHis-tagged, from the ASKA ORF library (on the proteome array) (natural protein)
chain: not shown
notes: TyrA, fused chorismate mutase/prephenate dehydrogenase, E. coli K12; ORF clone of the ASKA library; source: E. coli, ASKA library clone, purified (Ni-NTA, high-throughput)
On to B6, for which the binding result in assay [2] is on record as “binds”.

B7: YacF, N-terminally 6xHis-tagged, from the ASKA ORF library (on the proteome array) (natural protein, E. coli K12, UniProt P36680 1-247, looked up)
chain: MQTQVLFEHPLNEKMRTWLRIEFLIQQLTVNLPIVDHAGALHFFRNVSELLDVFERGEVRTELLKELDRQQRKLQTWIGVPGVDQSRIEALIQQLKAAGSVLISAPRIGQFLREDRLIALVRQRLSIPGGCCSFDLPTLHIWLHLPQAQRDSQVETWIASLNPLTQALTMVLDLIRQSAPFRKQTSLNGFYQDNGGDADLLRLNLSLDSQLYPQISGHKSRFAIRFMPLDTENGQVPERLDFELACC
notes: YacF (ZapD), cell division protein, E. coli K12; ORF clone of the ASKA library; also called ZapD; source: E. coli, ASKA library clone, purified (Ni-NTA, high-throughput)
Consider B7, for which, in assay [2], the binding result is “binds”.

B8: RfaD, N-terminally 6xHis-tagged, from the ASKA ORF library (on the proteome array) (natural protein, E. coli K12, UniProt P67910 1-310, looked up)
chain: MIIVTGGAGFIGSNIVKALNDKGITDILVVDNLKDGTKFVNLVDLNIADYMDKEDFLIQIMAGEEFGDVEAIFHEGACSSTTEWDGKYMMDNNYQYSKELLHYCLEREIPFLYASSAATYGGRTSDFIESREYEKPLNVYGYSKFLFDEYVRQILPEANSQIVGFRYFNVYGPREGHKGSMASVAFHLNTQLNNGESPKLFEGSENFKRDFVYVGDVADVNLWFLENGVSGIFNLGTGRAESFQAVADATLAYHKKGQIEYIPFPDKLKGRYQAFTQADLTNLRAAGYDKPFKTVAEGVTEYMAWLNRDA
notes: RfaD, ADP-L-glycero-D-manno-heptose-6-epimerase, E. coli K12; ORF clone of the ASKA library; source: E. coli, ASKA library clone, purified (Ni-NTA, high-throughput)
For the molecule B8, the binding result in assay [1] is on record as “binds”.

B9: YdhS, N-terminally 6xHis-tagged, from the ASKA ORF library (on the proteome array) (natural protein, E. coli K12, UniProt P77148 1-534, looked up)
chain: MKKIAIVGAGPTGIYTLFSLLQQQTPLSISIFEQADEAGVGMPYSDEENSKMMLANIASIEIPPIYCTYLEWLQKQEDSHLQRYGVKKETLHDRQFLPRILLGEYFRDQFLRLVDQARQQKFAVAVYESCQVTDLQITNAGVMLATNQDLPSETFDLAVIATGHVWPDEEEATRTYFPSPWSGLMEAKVDACNVGIMGTSLSGLDAAMAVAIQHGSFIEDDKQHVVFHRDNASEKLNITLLSRTGILPEADFYCPIPYEPLHIVTDQALNAEIQKGEEGLLDRVFRLIVEEIKFADPDWSQRIALESLNVDSFAQAWFAERKQRDPFDWAEKNLQEVERNKREKHTVPWRYVILRLHEAVQEIVPHLNEHDHKRFSKGLARVFIDNYAAIPSESIRRLLALREAGIIHILALGEDYKMEINESRTVLKTEDNSYSFDVFIDARGQRPLKVKDIPFPGLREQLQKTGDEIPDVGEDYTLQQPEDIRGRVAFGALPWLMHDQPFVQGLTACAEIGEAMARAVVKPASRARRRLSFD
notes: YdhS, function E. coli K12; ORF clone of the ASKA library; source: E. coli, ASKA library clone, purified (Ni-NTA, high-throughput)
Regarding B9, in assay [1], the binding result is given as “binds”.
